Test results: the DeepSol protein solubility set

Assay: soluble on expression in E. coli; label from the status in PepcDB or PDB records

Sequence | soluble on expression in E. coli
MNMKATALTATTVAIASLLPSMGETNVQKANAEQLSNIKTGYVKVDQVALHTEDNVKSTSIDTIRFNTKVNIIETTNGWYKVSVHNKVGYVQKDAILLKNKLQSNDQYIVNANALNVRSEPNLESSILDVLPNGKFITVQEDQGEWYKISHNGQTGYVQKAFISNGSQPLVKGITVQNNTKYTVATPNLNVRSTASTSSALLGSLQNGTQVQVVETVGTWYKIRFGTGYGYVAKHYVVQNQPQAKTDQPSSIPAAFKFPAQGRISSTFDIRWEQMHYGIDIAAPGNVSIQAAAAGKVVKSYYSASYGNVVFIAHQINGKLYTTVYAHMKDRTVQAGDQVQTGQLIGHMGNTGHSYGQHLHCELHNGEWNFEKTDAVNPLPYLVRLEHHHHHH | soluble
MGHHHHHHSHMQLVRDLLEVTSGLISDDIINMRNDLYQTPLHLAVITKQEDVVEDLLRAGADLSLLDRLGNSVLHLAAKEGHDKVLSILLKHKKAALLLDHPNGDGLNAIHLAMMSNSLPCLLLLVAAGADVNAQEQKSGRTALHLAVEHDNISLAGCLLLEGDAHVDSTTYDGTTPLHIAAGRGSTRLAALLKAAGADPLVENFEPLYDL | not soluble
MNIAIGTTQDRALYEDALRVRRLVFIEEQNVPEDEEIDAFEDDSFHLVLYDGQTPVGAGRLRFIDEGVGKIERICVLPSYRGRGAGRMVMEAIEQLAKTKGAKTAKLNAQTHAEPFYQKLGYTTVSGVFMDAGIPHVTMVKSLE | soluble
MAQIDFRKKINWHRRYRSPQGVKTEHEILRIFESDRGRIINSPAIRRLQQKTQVFPLERNAAVRTRLTHSMEVQQVGRYIAKEILSRLKELKLLEAYGLDELTGPFESIVEMSCLMHDIGNPPFGHFGEAAINDWFRQRLHPEDAESQPLTDDRCSVAVLRLRDGEEPLNELRRKIRQDLCHFEGNAQGIRLVHTLMRMNLTWAQVGGILKYTRPAWWRGETPETHHYLMKKPGYYLSEEAYIARLRKELNLALYSRFPLTWIMEAADDISYCVADLEDAVEKRIFTVEQLYHHLHEAWGQHEKGSLFSLVVENAWEKSRSNSLSRSTEDQFFMYLRVNTLNKLVPYAAQRFIDNLPAIFAGTFNHALLEDASECSDLLKLYKNVAVKHVFSHPDVEQLELQGYRVISGLLEIYRPLLSLSLSDFTELVEKERVKRSPIESRLFHKLSTRHRLAYVEAVSKLPSDSPEFPLWEYYYRCRLLQDYISGMTDLYAWDEYRRLMAVEQ | not soluble
MQRIELLPLVLDNQTFFQNCPDIIPRIIPFSPCLDGSEVNFICGPLHTGKTSFLRQVAGSLQGLKVYINFEDSRFRDLKPETLQEIKEIAAEYCIKGPEDEEGLAGKDIDDKERPEVPVSYFLDEIHYLPGWGDRVYSLQNDGARVFVTSSSAGIISKEISSRFADGIKIIRLLPFSFKEYLTLKGLRVPRPNFLTPSRCDEMLCLFLQYFENGGFPEIIKSGDFRLSRKYFEETLQKEIIERHTIQDPEGLKKLAVFLISNMASEYSIDTLKRAGGIKDEATVRNYLDYLEEAFLLYRVPMFRHKSEKPDYGKEGENENERESNIPCKVYAGDTGFFKSVFPRYPDSLGLRFENLVFLELLRKGKQVYYFHNTRECDFLIAEKESQKVTAAVQVCLCFGGTAVREREVLGLMEAMEEFGLNEGLILTMDDEEVMEIEGKDGENKRIIINSVWKWMLELEHHHHHH | not soluble
MDEDTRLSRYLYLTDREHINVDSIKQLCKISDPNACYRCGCTALHEYFYNYRSVNGKYKYRYNGYYQYYSSSDYENYNEYYYDDYDRTGMNSESDNISIKTEYENEYEFYDETQDQSTQLVDYDIKLKTNEDDFVDEFYGYDRSVGVHDYIDVSINKVVYGRESHVRWRDIWQEHNDGVYSIGKECIDNIYEDRHTVDEFYKIDSVSDVDDAEHISQITNDVSTQTWEKKSELDRYMEMYPRHRYGKHSVFKGFSDKVRKNDLDMNVVKELLSNGASLTIKDSSNKDPIAVYFRRTIMNLEMIDIINKHTTIYERRYIVHSYLKNYRNFDYPFFRKLVLTNKHCLNNYYNISDSKYGTPLHILASNKKIITPNYMKLLVYNGNDINARGEDTQMRTPLHKYLCKFVYHNIEYGIRYYNEKIIDAFIELGADLTIPNDDGMIPVVYCIHSNAEYGYNNITNIKIIRKLLNLSRHASHNLFRDRVMHDYISNTYIDLECLDIIRSLDGYDINCYFEGRTPLHCAIQYNFTQIAEYLLDRGADISLKTDDGKTVFDLSLCSYIPLKWTSFLISRLPPKSVICSLTNHIIDYVLTNNRRIIWQSQMINKYVLLLDPSFYYRFRNAIENKLDQYNNRYNMFEHDRDVNEKYGKVLHDLDTYIKDVQVLKSTSITNNITLYDTIINNKSEFPIRRANDKQLINLIKSNTYHNLIEKVIKNTLEKYTLTNIVLEYMISSQSQSQSSYLSRIPNEILLEILYKLDMYDLRNLYTRYMRENDITEYHIENTRSVSTQT | not soluble
MEALRASYGDSSSDSDTDDLSPASPVTANSGEKDSISLPPPPLALLDSIVSTGSLDFFSTEPGVRVRNFPHVDGNYALHVYVPVCIPPLPKKEIVCFLKKVASVVPHLHLVEADVPLSILCKDDQKFERALGREFHISLGRNVPLRVHQINSVISMLRQKLQLQKRYLIDFNKWEVFVNDDHTRSFLSLEITTSGLSEISKQIDAVNEVYKLHNLPEFYKDPRPHISLVWALGDIRTSLKGAVDVELRKLRAGGCVQNRIFTSKFCGIECKIGNKTHKICKLPDE | soluble
MRIDILTLFPGMFSGVLNESILKKAQEKGAVDIRLIDFREFADNKHKTVDDYPYGGGAGMVLKPQPIFDAVEHVTAGSPGARIILLCPQGERYTQKKAEELAKETHLVLICGHYEGYDERIRQYLATDEISIGDYILTGGELGAMVIVDSVVRLLPGVLGNEASPVDDSFSSGLLEYPQYTRPADFRGMKVPDILLSGNHQLIAEWREKESLRRTFLRRPDLLDEYPLTDKQKQWLKEWEKERE | not soluble
DGSCTNTNSQLSANSKCEKSTLTNCYVDKSEVYGTTCTGSRFDGVTITTSTSTGSRISGPGCKISTCIITGGVPAPSAACKISGCTFSAN | soluble
MSKKIVLALGGNALGDDLAGQMKAVKITSQAIVDLIAQGHEVIVTHGNGPQVGMINQAFEAAAKTEAHSPMLPMSVCVALSQGYIGYDLQNALREELLSRGINKPVATLVTQVEVDANDPAFLNPTKPIGSFFTEQEAEQLTKQGYTLKEDAGRGYRRVVASPKPVDIIEKETVKALVDAGQVVITVGGGGIPVIREGNHLRGASAVIDKDWASARLAEMIDADMLIILTAVEKVAINFGKENEQWLDRLSLSDAERFIEEGHFAKGSMLPKVEAAASFARSRAGREALITVLSKAKEGIEGKTGTVICQ | not soluble
MAHHHHHHMGDHLGSRFTVIEQIGSGNYGSLYRVIDGEAATLADRIIATKKLQDTINHPHVLREVSAQRHAQKCSPHIVKLLHVVPRDRVRAALVLEYVPLDLRTFLNAFYCNQAKSSAPTWCATAGADELKSAAAPPCHIPLIYVRRMLRGLIEALHCLHARGIAHRDVKPENILVEPLGLGHPLRCVCPPMGSFGPAGEAAGCWVHAPHCPDPRQEERGVTRPMQPQGTLEPCQFFRRYSVALHHELTGDELASAIHRLHCETCRPCPCARAGAGKHAPQQHRDSSEMKTGNSCAQERQADAVDEESPANVDDGEADKLTAPMSPPLMPDVKLCDFGSARHIGTLRLRSAEEQREELTPGPTTPVYCAPEMMLLQRYGTSVDMWAVGAILFEMLTGEFFLGVGTLRSFSGDVVVRDDYCVMHRLNRMFRHLGTPSVEEWRCIAHPHYYPDEMLAHLPQVRDAALFRCLAQPIDTDGSFRRDSGDIKSNGDAKTADVQTDLNVRPSAGTCSCAQAPVNGTTDSHAARASAPPRDATAARHPLNVSDFLYQHIGESGVDFLRSLLRYDPAKRMTSAEALRHPFLSPEVANM | not soluble
MAKLITLGEILIEFNALSPGPLRHVSYFEKHVAGSEANYCVAFIKQGNECGIIAKVGDDEFGYNAIEWLRGQGVDVSHMKIDPSAPTGIFFIQRHYPVPLKSESIYYRKGSAGSKLSPEDVDEEYVKSADLVHSSGITLAISSTAKEAVYKAFEIASNRSFDTNIRLKLWSAEEAKREILKLLSKFHLKFLITDTDDSKIILGESDPDKAAKAFSDYAEIIVMKLGPKGAIVYYDGKKYYSSGYQVPVEDVTGAGDALGGTFLSLYYKGFEMEKALDYAIVASTLNVMIRGDQENLPTTKDIETFLREMKK | soluble
